Results: patent US4937390A, “Compound useful for the production of 3-deoxy-3-fluoro-myo-inositol” (University of Pittsburgh, priority 1989, dated 1990)

Substrate: O[C@H]1[C@H](O)[C@@H](O)[C@H](O)[C@@H](O)[C@H]1O
Experiment: [3H]myo-inositol uptake by the myo-inositol transporter in PC12 cells
Type: cell-based, rat
Settings: other: Lineweaver-Burke plots, [3H]myo-inositol 25 nM with increasing unlabeled myo-inositol, 37.0 °C
Description: To determine if the effect of the fluoro-myo-inositol analogs might be mediated by the blockade of the myo-inositol transporter, which is responsible for uptake and accumulation of myo-inositol into the cell, the ability of these two compounds to block [^3 H]myo-inositol transport was studied directly.
The uptake of [^3 H]myo-inositol by the myo-inositol transporter was determined as follows:
PC12 cells were gently detached and maintained in a suspension culture in RPMI medium (both myo-inositol and serum free) at 37° C. ]^3 H]myo-inositol was added to this culture at a concentration of 1μCi/ml. Aliquots of this suspension were removed at the indicated time, diluted in 10 volumes of ice-cold PBS containing 10 mM unlabelled myo-inositol to stop the uptake process, centrifuged at 4° C. for 20 minutes at 50 xg. The cell pellet, which contained the transported [^3 H]myo-inositol, was dissolved in dilute NaOH and the radioactivity quantified by liquid scintillation counting.
The […] and Vmax of myoinositol were determined from LineweaverBurke plots
of the uptake of [^3 H]myoinositol (25 nM) in the presence of
increasing concentrations of unlabeled myoinositol in PC12 cells. The Ki
of the two fluoromyo-inositol analogs was determined by conducting the
uptake studies in the presence of a fixed concentration (1 mM) of each

B1: myo-inositol transporter (Rattus norvegicus) (protein)
chain: MRAVLETADIAIVALYFVLVMCIGFFAMWKSNRSTVSGYFLAGRSMTWVAIGASLFVSNIGSEHFIGLAGSGAASGFAVGAWEFNALLLLQLLGWVFIPIYIRSGVYTMPEYLSKRFGGHRIQVYFAALSLLLYIFTKLSVDLYSGALFIQESLGWNLYVSVILLIGMTALLTVTGGLVAVIYTDTLQALLMIIGALTLMVISMMKVGGFEEVKRRYMLASPNVASILLTHNLSNTNSCMVHPKADALKMLRDPTDEDVPWPGFILGQTPASVWYWCADQVIVQRVLAAKNIAHAKGSTLMAGFLKLLPMFIIVVPGMISRILFVDDIACINPEHCMQVCGSRAGCSNIAYPRLVMELVPVGLRGLMMAVMIAALMSDLDSIFNSASTIFTLDVYKLLRNNASSRELMIVGRIFVAFMVVISIAWVPIIVEMQGGQMYLYIQEVADYLTPPVAALFLLAIFWKRCNEQGAFYGGMAGFVLGAIRLILAFTYRAPECDQPDNRPSFIKDIHYMYVATALFWITGLITVIVSLLTPPPTKDQIRTTTFWSKKTVVTKESCSQKDEPYKMQEKSILRCSENSEVVSHTIPNGKSEDSIKGLQPEDVNLLVTCREEGNPVASMGHSGAETPVDAYSNGQAALMGERAREKETESRSRYWKFIDWFCGFKSRSLSKRSLRDSMDEEAVCLQMLEETPRVRVILNIGLFAVCSLGIFMFVYFSL
notes: PC12 cells were gently detached and maintained in a suspension culture; endogenous in cells; host or cells: PC12 cells
- Km: 45 µM
- Vmax: 2.27 nmol/mg/h
